B1: C5A (XPA23) VH P53N (antibody, V domains shown)
VH: EVQLLESGGGLVQPGGSLRLSCAASGFTFSKYFMFWVRQAPGKGLEWVSVISNSGGMTRYADSVKGRFTISRDNSKNTLYLQMNSLRAEDTAVYYCARVGYGGNSDYWGQGTLVTVSS
VL: DIQMTQSPSSVSASVGDRLTIICRASQDINRWLAWYQQTPGNAPKLLIHSATSLQSGVPSRFSGSGSGTDFTLTINSLQPEDFATYYCQQADSFPLTFGGGTKVEIK
B2: C5A (XPA23) VH G55Y (antibody, V domains shown)
VH: B1 VH with N53P, G55Y
VL: B1 VL
B3: C5A (XPA23) VH M57T (antibody, V domains shown)
VH: B1 VH with N53P, M57T
VL: B1 VL
B4: C5A (XPA23) VH G56D (antibody, V domains shown)
VH: B1 VH with N53P, G56D
VL: B1 VL
B5: C5A (XPA23) VH G55S (antibody, V domains shown)
VH: B1 VH with N53P, G55S
VL: B1 VL
B6: C5A (XPA23) VH G56E (antibody, V domains shown)
VH: B1 VH with N53P, G56E
VL: B1 VL
B7: C5A (XPA23) VH M57Y (antibody, V domains shown)
VH: B1 VH with N53P, M57Y
VL: B1 VL
B8: C5A (XPA23) VH S54N (antibody, V domains shown)
VH: B1 VH with N53P, S54N
VL: B1 VL
B9: C5A (XPA23) VH S54Q (antibody, V domains shown)
VH: B1 VH with N53P, S54Q
VL: B1 VL
B10: C5A (XPA23) VH M57R (antibody, V domains shown)
VH: B1 VH with N53P, M57R
VL: B1 VL
B11: C5A (XPA23) VH G56N (antibody, V domains shown)
VH: B1 VH with N53P, G56N
VL: B1 VL
B12: C5A (XPA23) VH M57S (antibody, V domains shown)
VH: B1 VH with N53P, M57S
VL: B1 VL
B13: C5A (XPA23) VH M57K (antibody, V domains shown)
VH: B1 VH with N53P, M57K
VL: B1 VL
B14: C5A (XPA23) VH P53Y (antibody, V domains shown)
VH: B1 VH with N53Y
VL: B1 VL
B15: C5A (XPA23) VH M57Q (antibody, V domains shown)
VH: B1 VH with N53P, M57Q
VL: B1 VL
B16: C5A (XPA23) VH G55N (antibody, V domains shown)
VH: B1 VH with N53P, G55N
VL: B1 VL
B17: C5A (XPA23) VH G55K (antibody, V domains shown)
VH: B1 VH with N53P, G55K
VL: B1 VL
B18: C5A (XPA23) VH G55Q (antibody, V domains shown)
VH: B1 VH with N53P, G55Q
VL: B1 VL
B19: C5A (XPA23) VH G56R (antibody, V domains shown)
VH: B1 VH with N53P, G56R
VL: B1 VL
B20: C5A (XPA23) VH S54T (antibody, V domains shown)
VH: B1 VH with N53P, S54T
VL: B1 VL
B21: C5A (XPA23) VH G56H (antibody, V domains shown)
VH: B1 VH with N53P, G56H
VL: B1 VL
B22: C5A (XPA23) VH S54D (antibody, V domains shown)
VH: B1 VH with N53P, S54D
VL: B1 VL
B23: C5A (XPA23) VH G56K (antibody, V domains shown)
VH: B1 VH with N53P, G56K
VL: B1 VL
B24: C5A (XPA23) VH S54K (antibody, V domains shown)
VH: B1 VH with N53P, S54K
VL: B1 VL
B25: C5A (XPA23) VH P53Q (antibody, V domains shown)
VH: B1 VH with N53Q
VL: B1 VL
B26: C5A (XPA23) VH G56Q (antibody, V domains shown)
VH: B1 VH with N53P, G56Q
VL: B1 VL
B27: C5A (XPA23) VH G56T (antibody, V domains shown)
VH: B1 VH with N53P, G56T
VL: B1 VL
B28: C5A (XPA23) VH G55E (antibody, V domains shown)
VH: B1 VH with N53P, G55E
VL: B1 VL
B29: C5A (XPA23) VH M57N (antibody, V domains shown)
VH: B1 VH with N53P, M57N
VL: B1 VL
B30: C5A (XPA23) VH G55R (antibody, V domains shown)
VH: B1 VH with N53P, G55R
VL: B1 VL
B31: C5A (XPA23) VH S54Y (antibody, V domains shown)
VH: B1 VH with N53P, S54Y
VL: B1 VL
B32: C5A (XPA23) VH S54R (antibody, V domains shown)
VH: B1 VH with N53P, S54R
VL: B1 VL
B33: C5A (XPA23) VH M57H (antibody, V domains shown)
VH: B1 VH with N53P, M57H
VL: B1 VL
B34: C5A (XPA23) VH S54E (antibody, V domains shown)
VH: B1 VH with N53P, S54E
VL: B1 VL
B35: C5A (XPA23) VH G56Y (antibody, V domains shown)
VH: B1 VH with N53P, G56Y
VL: B1 VL

Numbering of substitutions follows the chain as printed. Numbers in names are those of the source.

For one assay, the target named is binding partner of C5A (XPA23). Description: Biacore.
B1: the fold affinity vs original came to 0.06 fold.
On to B2, for which the fold affinity vs original was 0.08 fold.
Consider B3, for which the fold difference in affinity vs original was 0.06 fold.
Take B4: the fold affinity vs original stood at 0.05 fold.
Turning to B5, the fold affinity vs original is 1.02 fold.
Same read-out and setting: in the case of B6 it was 1.21 fold.
With B7, the fold affinity vs original stood at 0.86 fold.
On the same count and under the same terms, in the case of B8 it was 0.08 fold; in that of B9, 1.01 fold; in that of B10, 0.06 fold.
Same read-out and setting: in the case of B11 it was 1.06 fold.
B12: the fold affinity vs original was found to be 0.04 fold.
For the molecule B13, the fold affinity vs original turned out to be 0.04 fold.
B14: the fold affinity vs original turned out to be 0.03 fold.
For B15, the fold affinity vs original came out at 0.02 fold.
Same read-out and setting: in the case of B16 it was 0.1 fold; in that of B17, 0.11 fold.
Same read-out and setting: in the case of B18 it was 0.9 fold; in that of B19, 2.11 fold.
Turning to B20, the fold difference in affinity vs original was found to be 0.14 fold.
B21: the fold affinity vs original turned out to be 0.82 fold.
On the same count and under the same terms, next, B22: 0.12 fold.
On to B23, for which the fold affinity vs original is 2.05 fold.
In the case of B24, the fold affinity vs original turned out to be 1.53 fold.
Still for that read-out and setting: next, B25: 0.03 fold; B26: 1.31 fold.
Consider B27, for which the fold difference in affinity vs original is 1.11 fold.
Turning to B28, the fold affinity vs original stood at 0.11 fold.
Consider B29, for which the fold affinity vs original was 0.03 fold.
In the case of B30, the fold affinity vs original worked out at 0.95 fold.
For B31, the fold affinity vs original came to 0.99 fold.
On the same count and under the same terms, in the case of B32 it was 1.43 fold.
For the molecule B33, the fold affinity vs original stood at 0.08 fold.
Still for that read-out and setting: in the case of B34 it was 0.03 fold.
Turning to B35, the fold affinity vs original came to 1.27 fold.

The target of the next assay is binding partner of C5A (XPA23). Briefly: Biacore, K-off. In general terms: SPR reads the build-up and loss of mass on a sensor chip optically.
For the molecule B1, the fold difference in affinity vs original was found to be 0.06 fold.
Same read-out and setting: next, B2: 0.08 fold.
For the molecule B3, the fold difference in affinity vs original is 0.06 fold.
The same measure, in the same setting: next, B4: 0.05 fold.
Take B5: the fold difference in affinity vs original was 1.02 fold.
Turning to B6, the fold difference in affinity vs original worked out at 1.21 fold.
Still for that read-out and setting: next, B7: 0.86 fold; B8: 0.08 fold.
B9: the fold difference in affinity vs original came out at 1.01 fold.
Take B10: the fold difference in affinity vs original was determined as 0.06 fold.
The same measure, in the same setting: next, B11: 1.06 fold.
On the same count and under the same terms, next, B12: 0.04 fold; B13: 0.04 fold.
On the same count and under the same terms, next, B14: 0.03 fold; B15: 0.02 fold; B16: 0.1 fold.
For the molecule B17, the fold difference in affinity vs original came to 0.11 fold.
Regarding B18, the fold difference in affinity vs original turned out to be 0.9 fold.
The same measure, in the same setting: in the case of B19 it was 2.11 fold; in that of B20, 0.14 fold; in that of B21, 0.82 fold.
On the same count and under the same terms, in the case of B22 it was 0.12 fold.
Regarding B23, the fold difference in affinity vs original was determined as 2.05 fold.
Same read-out and setting: next, B24: 1.53 fold; B25: 0.03 fold; B26: 1.31 fold.
Regarding B27, the fold difference in affinity vs original was found to be 1.11 fold.
Still for that read-out and setting: next, B28: 0.11 fold.
Same read-out and setting: next, B29: 0.03 fold.
On the same count and under the same terms, in the case of B30 it was 0.95 fold.
B31: the fold difference in affinity vs original worked out at 0.99 fold.
Consider B32, for which the fold difference in affinity vs original worked out at 1.43 fold.
On the same count and under the same terms, next, B33: 0.08 fold.
For B34, the fold difference in affinity vs original was determined as 0.03 fold.
On the same count and under the same terms, next, B35: 1.27 fold.
